Publication PMC2635920 (Nature structural & molecular biology, 2009)

B1: Dsl1ΔC (Dsl1p residues 1-361) (domain or fragment, S. cerevisiae, UniProt P53847 1-361, looked up)
chain: MESLFPNKGEIIRELLKDPLILKNDSKRSNGSELELDSSDLLQREAILANELNILDNLKTFLNLIKEVKTNLNILELENCYYSLQSLRKKMRNNAAYLKQSFNFQQSISTYVDTLHLELVSTLYKILTNGFWKITENSIQFTPTVEWGKDKVHIEYDTFMDFVAQQYFPKGSLDNQAWFILDMTSADSQEQVRAKLNTIMKEYMNLSRIVSMIKNSIFISGKEISYENEKNILVFSKSSSHGQHCVSTVLTSFEAVCDFMLDGLAFRDRKTLSYELGPLFNTEFTKFVKNNASIILESLDSPLKNLVSVINNKLTRLVAKSEVTNWTHSGKEIQDLLMNKQLYYNLLLDKVLESHISEIRS

Columns and labels:
[1] = molecular target: T1, Tip20p, full-length (residues 1-701) (S. cerevisiae, UniProt P33891 1-701); experiment: AUC
T1 sequence (looked up): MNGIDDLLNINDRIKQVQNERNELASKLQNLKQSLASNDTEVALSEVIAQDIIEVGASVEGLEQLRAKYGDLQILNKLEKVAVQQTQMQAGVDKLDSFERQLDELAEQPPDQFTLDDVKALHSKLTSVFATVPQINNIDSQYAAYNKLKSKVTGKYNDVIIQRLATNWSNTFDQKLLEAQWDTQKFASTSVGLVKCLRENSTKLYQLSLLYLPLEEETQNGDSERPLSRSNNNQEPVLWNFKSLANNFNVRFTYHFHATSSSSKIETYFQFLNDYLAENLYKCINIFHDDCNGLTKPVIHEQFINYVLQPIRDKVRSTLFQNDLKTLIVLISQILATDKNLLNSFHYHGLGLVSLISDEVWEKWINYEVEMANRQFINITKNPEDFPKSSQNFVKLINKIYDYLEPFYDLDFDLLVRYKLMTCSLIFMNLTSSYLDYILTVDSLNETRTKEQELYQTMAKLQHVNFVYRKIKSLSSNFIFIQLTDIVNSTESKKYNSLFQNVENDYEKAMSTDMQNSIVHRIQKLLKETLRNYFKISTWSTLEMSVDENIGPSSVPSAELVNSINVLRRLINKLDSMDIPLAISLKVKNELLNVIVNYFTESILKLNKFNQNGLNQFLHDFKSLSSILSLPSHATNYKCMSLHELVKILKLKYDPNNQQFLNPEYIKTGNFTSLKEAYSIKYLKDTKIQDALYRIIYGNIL

[2] = molecular target: B1; experiment: pull-down
[3] = molecular target: T1, Tip20p, full-length (residues 1-701); experiment: SEC
[4] = molecular target: T2, Tip20ΔN (Tip20p residues 82-701) (S. cerevisiae, UniProt P33891 82-701); experiment: SEC
T2 sequence (looked up): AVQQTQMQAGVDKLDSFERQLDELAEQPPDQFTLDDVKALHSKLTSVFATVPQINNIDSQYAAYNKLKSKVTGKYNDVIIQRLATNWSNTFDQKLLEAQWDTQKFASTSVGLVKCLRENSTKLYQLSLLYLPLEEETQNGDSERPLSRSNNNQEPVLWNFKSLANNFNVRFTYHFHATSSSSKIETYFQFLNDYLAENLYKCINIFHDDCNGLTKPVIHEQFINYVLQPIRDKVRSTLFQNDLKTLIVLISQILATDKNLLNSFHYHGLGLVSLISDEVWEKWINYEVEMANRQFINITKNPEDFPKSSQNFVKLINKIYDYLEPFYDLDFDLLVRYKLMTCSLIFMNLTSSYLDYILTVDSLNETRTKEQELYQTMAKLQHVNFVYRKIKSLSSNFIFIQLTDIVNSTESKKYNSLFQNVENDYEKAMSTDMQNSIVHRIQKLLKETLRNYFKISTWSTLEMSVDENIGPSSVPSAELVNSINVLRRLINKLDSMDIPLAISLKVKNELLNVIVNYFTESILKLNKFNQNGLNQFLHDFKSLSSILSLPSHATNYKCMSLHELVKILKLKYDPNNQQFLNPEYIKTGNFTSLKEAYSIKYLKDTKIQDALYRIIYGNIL

[5] = molecular target: intact Dsl1p complex (Tip20p-Dsl1p-Sec39p) (S. cerevisiae, UniProt P33891 1-701; P53847 1-754; Q12745 1-709); experiment: SEC
intact Dsl1p complex (Tip20p-Dsl1p-Sec39p), sequence (Q12745 whole entry, one chain of several): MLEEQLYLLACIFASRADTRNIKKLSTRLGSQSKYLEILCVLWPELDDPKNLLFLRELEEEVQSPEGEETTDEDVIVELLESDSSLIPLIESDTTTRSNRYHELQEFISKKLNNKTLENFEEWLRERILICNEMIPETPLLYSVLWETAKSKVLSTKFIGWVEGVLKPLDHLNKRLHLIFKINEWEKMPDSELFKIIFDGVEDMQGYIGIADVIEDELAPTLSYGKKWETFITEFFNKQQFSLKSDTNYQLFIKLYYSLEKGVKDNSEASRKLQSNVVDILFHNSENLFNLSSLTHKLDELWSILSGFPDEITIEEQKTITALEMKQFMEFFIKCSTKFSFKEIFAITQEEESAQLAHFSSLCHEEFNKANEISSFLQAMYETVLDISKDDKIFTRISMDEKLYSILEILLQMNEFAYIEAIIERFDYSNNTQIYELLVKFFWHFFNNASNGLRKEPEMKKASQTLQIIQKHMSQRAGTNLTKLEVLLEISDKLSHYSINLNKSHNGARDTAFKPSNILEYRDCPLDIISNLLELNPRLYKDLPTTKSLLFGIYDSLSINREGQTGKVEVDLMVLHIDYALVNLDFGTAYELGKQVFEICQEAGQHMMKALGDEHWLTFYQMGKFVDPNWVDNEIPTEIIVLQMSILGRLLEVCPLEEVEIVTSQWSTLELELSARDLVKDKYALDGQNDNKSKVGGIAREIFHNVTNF

B1
stoichiometry N [1]: 1

MNGIDDLLNINDRIKQVQNERNELASKLQNLKQSLASNDTEVA (domain or fragment, S. cerevisiae, UniProt P33891 1-43, looked up) [GST-Tip20p (residues 1-43)]
binding result [2]: binds

B2: Sec20ΔC (cytoplasmic domain of Sec20p, residues 1-275) (domain or fragment, S. cerevisiae, UniProt P28791 1-275, looked up)
chain: MVVTFLQDLEVLQDALLNNLQKLSAISRRKESGESKHDNKDSFAAIANEHNDEEEEIEFEDLVNIIESKVSDFESVLKCSIVEMTYKYPELKLQWEKSPRYDQCDKLHIVKLDKQMNEDIYAQLVEELDFVLQFVDWFYCYRLKVKEILRQHHKRDLAWNDEKRDRAIKFHAVDYDKLHQGTSSSSSLTSTSMEKASTREKLLSKTKQLTNNLVRGNQILQSGILQSDLNLDELRAQTNSLTQIDDKYTQFETVFKKTADLVKVLENASHQEKRD
binding result [3]: binds | binding result [4]: binds | binding result [5]: binds
